# Assay results taken from PMC5746249, “Novel linear motif filtering protocol reveals the role of the LC8 dynein light chain in the Hippo pathway” (PLoS Computational Biology, 2017).
# Molecular target: LC8 dynein light chain (DYNLL2), full-length, His6-tagged (human (by the printed accession Q96FJ2), UniProt Q96FJ2 1-89)
# Test: SPR; His6-LC8 immobilised on Ni2+-NTA HTG sensor chip (ProteOn XPR36) at three densities (1200, 900, 600 RU); peptides injected at five concentrations, 60 ul/min; 20 mM Hepes, 150 mM NaCl, 0.05% Tween-20, 0.1 mM TCEP, 50 uM EDTA, pH 7.5; 1:1 Langmuir global fit; apparent Kd, mean of kinetic and equilibrium analysis
# Details: both partners purified
# LC8 dynein light chain (DYNLL2), full-length, His6-tagged, sequence (Q96FJ2 whole entry, one chain of several): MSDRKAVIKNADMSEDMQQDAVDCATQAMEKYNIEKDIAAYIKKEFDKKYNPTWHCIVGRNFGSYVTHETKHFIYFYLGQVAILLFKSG
row,Binder,Kd [µM]
1,"KQYLDVSSQTD (core 278-285 printed; S1 Table prints the 11-mer KQYLDVSSQTD starting at 275; termini chemistry not stated) [WWC1 (KIBRA) LC8 binding motif peptide, start 278]",0.45
2,"ALKVDKETNTE (core 887-894 printed; 11-mer assumed to add 3 N-terminal residues, as in the S1 Table motif format; termini chemistry not stated) [WWC1 (KIBRA) LC8 binding motif peptide, start 887]",4
3,"RQTLDAGSQTS (core 282-289 printed; 11-mer assumed to add 3 N-terminal residues, as in the S1 Table motif format; termini chemistry not stated) [WWC2 LC8 binding motif peptide, start 282]",32.7
4,"PTLVDKETNTD (core 962-969 printed; 11-mer assumed to add 3 N-terminal residues, as in the S1 Table motif format; termini chemistry not stated) [WWC2 LC8 binding motif peptide, start 962]",17.6
5,"QQFCDAGSQTD (printed start 208 appears to be in older 1092-aa numbering (current entry +124, so core 332-339); 11-mer assumed to add 3 N-terminal residues, as in the S1 Table motif format) [WWC3 LC8 binding motif peptide, start 208]",5.34
6,"PLKVDKETNTE (printed start 867 appears to be in older 1092-aa numbering (current entry +124, so core 991-998); 11-mer assumed to add 3 N-terminal residues, as in the S1 Table motif format) [WWC3 LC8 binding motif peptide, start 867]",3.5
7,"TGSRDCSTQTE (core 860-867 printed; 11-mer assumed to add 3 N-terminal residues, as in the S1 Table motif format; termini chemistry not stated) [AMOT LC8 binding motif peptide, start 860]",1.2
8,"TGSKDSSTQTD (core 873-880 printed; 11-mer assumed to add 3 N-terminal residues, as in the S1 Table motif format; termini chemistry not stated) [AMOTL1 LC8 binding motif peptide, start 873]",1.55
9,"HGSRDGSTQTE (core 724-731 printed; 11-mer assumed to add 3 N-terminal residues, as in the S1 Table motif format; termini chemistry not stated) [AMOTL2 LC8 binding motif peptide, start 724]",1.98
